Measurements as given in the DeepSol protein solubility set.

Test: soluble on expression in E. coli; label from the status in PepcDB or PDB records
For “GEERKSSSWGRVDAMELPNYSRQLLQQLYTLCKEQQFCDCTISIGTIYFRAHKLVLAAASLLFKTLLDNTDTISIDASVVSPEEFALLLEMMYTGKLPVGKHNFSKIISLADSLQMFDVAVSCKNLLTSLVNCSVQGQVVRDVSAPSSETFRKEPEKPQVEILSSEGAGEPHSSPELAATPGGPVKAETEEAAHSVSQEMSVNSPTAQESQRNAETPAETPTTAEACSPSPPVQTFSEAKKTSTEPGCERKHYQLNFLLENEGVFSDALMVTQDVLKKLEMCSEIKGPQKEMIVKCFEGEGGHSAFQRILGKVREESLDVQTVVSLLRLYQYSNPAVKTALLDRKPEDVDTVQPKGSTEEGKTLSVLLLEHKEDLIQCVTQLRPIMESLETAKEEFLTGTEKRVILNCCEGRTPKETIENLLHRMTEEKTLTAEGLVKLLQAVKTTFPNLGLLLEKLQKSATLPSTTVQPSPDDYGTELLRRYHENLSEIFTDNQILLKMISHMTSLAPGEREVMEKLVKRDSGSGGFNSLISAVLEKQTLSATAIWQLLLVVQETKTCPLDLLMEEIRREPGADAFFRAVTTPEHATLETILRHNQLILEAIQQKIECKLFTSEEEHLAETVKEILSIPSETASPEASLRAVLSRAMEKSVPAIEICHLLCSVHKSFPGLQPVMQELAYIGVLTKEDGEKETWKVSNKFHLEANNKEDEKAAKEDSQPGEQNDQGETGSLPGQQEKEASASPDPAKKSFICKACDKSFHFYCRLKVHMKRCRVAKSKQVQCKECSETKDSKKELDKHQLEAHGAGGEPDAPKKKKKRLPVTCDLCGREFAHASGMQYHKLTEHFDEKPFSCEECGAKFAANSTLKNHLRLHTGDRPFMCKHCLMTFTQASALAYHTKKKHSEGKMYACQYCDAVFAQSIELSRHVRTHTGDKPYVCRDCGKGFRQANGLSIHLHTFHNIEDPYDCKKCRMSFPTLQDHRKHIHEVHSKEYHPCPTCGKIFSAPSMLERHMVTHVGGKPFSCGICNKAYQQLSGLWYHNRTHHPDVFAAQNHRSSKFSSLQCSSCDKTFPNTIEHKKHIKAEHADMKFHECDQCKELFPTPALLQVHVKCQHSGSQPFRCLYCAATFRFPGALQHHVTTEHFKQSETTFPCELCGELFTSQAQLDSHLESEHPKVMSTETQAAASQMAQVIQTPEPVAPTEQVITLEETQLAGSQVFVTLPDSQASQASSELVAVTVEDLLDGTVTLICGEAK”, the “soluble on expression in E. coli” value was “soluble”. For “MNELVFLHSQYIEEEPYTTDEVIAKYSQIKRESVSKLIKKYQKDLEEFGKVGFEIRAMESGQKAKFYQLNEEQATLLITYLDNTEPVRRFKKALVRQFYDMKNGLYARRMERQKEKSVRKSMTDVIKELGLSPHYYKHYTDLVYKTALGFNAKQLREAREVSKKSTILDFLTSEEIEAVNKREQQVATLLTLKMDYDTIKSILNGQGVLYQTTLKMPVATN”, the “soluble on expression in E. coli” value was “not soluble”. For “MRMFSVQPIAFVHNERKEIKDDEWGEVRSRITLTEMYAEKSIQGIEDFSHIEVVFYFHKVTDEQIQYFARHPRNNKDYPEVGIFAQRGKNRPNRIGVTIVKVIKREGKSIIVEGLDAIDGTPILDIKPIMKEFMPTEEIHQPKWATDIMRQYWKGNVVKLEHHHHHH”, the “soluble on expression in E. coli” value was “soluble”. In the case of “MGSDKIHHHHHHMLKVSDLRLKYPNGQRKIFDHLNITIQDKEKVLLLGPSGCGKSTLLNVLSGIVPNLIELPMKYDELIVDPLSGVIFQDPDSQFCMPKVYEELAFVLENRQVPREDMDALIINALNMVNLNVTPETYIKDLSGGMKQKLAIVETILQQSKTLFLDEPTAMLDVQATEDLWTKLIELWEDQTVVIVEHKVKHIWNHVDRVILMDYNGNIIADECPEIILQKYVHLLSEYGVWHPRAWEFAPSRVDFPTTNSHLLQFKNGRIIRGKSTLLSFSDLEIGLGEWITITGANGSGKTTLLESIMQLIKYQGDVYFENQRLTKIKHAAKHMYLVYQNPELQFITNSVYDEINIHFNHLSKDQSDDETIQLLKLLDLQNVKDQHPYELSIGQKRRLSVATALSSKADIIFLDEPTFGLDSHNTFQLIKLFQKRINLGQSIVMVTHDDEIIERYPSRRLKISDGALLDCDGDTNV”, the “soluble on expression in E. coli” value is reported as “not soluble”. In the case of “MNKILIAAASSGAGKTTVTLGIMQALKKRGFAVQPFKVGPDYIDTNYHQAITGVASINLDSFLIDDDEMLASLFQKHGESADISVIEGVMGLFDGLGTDRDNASTSFIAKCTKTPVILVVDGKAISTSAAAIVDGFNRFDPELKIAGVIINRVASENHFSLIKGAIERYTDVPVLGYLPKNAAVALPERHLGLVPQEEMTELEAKWELLSDLITTHVDLDKLLEISKSSENLSTSKAQMKVADFSGLRVAYALDAAFHFYYQDNLDLIRLTGAELIPFSPLEDNEVPEADFIYIGGGFPEIFAKQLNDNRSMRKSILAAHEKGIPIYAECGGLMYLGSSLEMEGKQYEMVGVFNGISKMTTRLRKFGYCIAEPLEETLIGKKGMSIRGHEFHHSVFETTETACMKLSKKRDGEIVKEWRGGYQKGNTFASYLHIHFYQNPAILMQMFGAGKRLEHHHHHH”, the “soluble on expression in E. coli” value is reported as “soluble”. With “MGSDKIHHHHHHMKPITVLVSVDSNSVLMGARHFLNYFRDLVKEHNLEDTVDVLETGSMGIYPEGVIVSVLPDGVFYVVRNELDVRRIFEEHILKGRRVLDLEIPESQIKGTVEVEKVAEETRIVLKNVGEIDPTRIEEYIARDGYFALAKALQMEPGEIIEEIKRSGLRGRGGAGFPTGLKWEFTYKASADQKYVLCNADEGEPGTFKDRLIMEGDPHSLIEGMIIAGYAVGATKGYIYIRGEYHSSIEILKKAVEQAYEYGFLGENILGSGFNFDLKIRLGAGAYVAGEETALIESIEGKPARPRLKPPYPPTFGLFGKPTVVNNVETFVNVPRIIMNGAEWFKKFGTESSPGTKVFSLVGNVVRKGIVEVPMGVTVRDLIFKFGGGIEGGRKLKVVQTGGSAGTFIGPDKLDVPLDFDSYAKYGVSLGSGVILVADETHCVVDLALTVMRFFEHESCGKCTPCREGTRMIVNILERISRGEGKKEDLDTLREIARNAGETSFCGLGQSIPVPLLSIVDNFEEEFKAHIGADKCPVGVCEFKKKKEKKKIGVRKP” the “soluble on expression in E. coli” value was “not soluble”. For “MAHHHHHHMSPAADTTHSTTKPCAPNRSSIPETCSRAPNGTRASAADEVTLLTAPQFAKSTKDTRSTARQQEEQLSDVLVLIRHGERQDHVDRAWKGNALLPLYDPPLSNAGRMQSFETALRYFALRQERKVEKRIRGTFTLFLVSPFHRCIETAAVMNVIAFEGRLPMYVEPFLSDWQQAKVFRTAPVLGGSYTTSGRPSVPGAKGDRLLFRPQVEALRVTLIPFLKTRAAEETELLAEYKIGAEVASAWTTLAEEWLNTHTALPVWTCAAATNVIEAKVASRSDGASDVRATSRKAAKGSQPSPRDASNEGYRGCGVAHPEGKSDLLRRCEQVMSTHFLRCAAVASDTMVPLAIQTAVAAERTTRLPKYFQIWAERPEENRESAGPPALLPPMHIMAITHADVVSTLLEVCCPKYHDKGAGYSVPYCSVTTLQRHNNYYRIPTAEERRRREASASTLAPAQNRGKCYAKKKGNTPSSKNQLMTPIRTRPLSPLSVEWNVEAVGSTDLLRTRIVIQYTK”, the “soluble on expression in E. coli” value was “soluble”. In the case of “ANIQSFSFKNFNSPSFILQGDATVSSGKLQLTKVKENGIPTPSSLGRAFYSSPIQIYDKSTGAVASWATSFTVKISAPSKASFADGIAFALVPVGSEPRRNGGYLGVFDSDVYNNSAQTVAVEFDTLSNSGWDPSMKHIGIDVNSIKSIATVSWDLANGENAEILITYNAATSLLVASLVHPSRRTSYILSERVDITNELPEYVSVGFSATTGLSEGYIETHDVLSWSFASKLPDDSTAEPLDLASYLVRNVL”, the “soluble on expression in E. coli” value is reported as “soluble”. In the case of “MGSDKIHHHHHHMFWFKNVMIYRLTNALQLASNELEPLLQQHRFIGCSQSEMSKFGWTAPLAKTEQLHFCHTKQFLLISHKEDKLLPANVIKAETEERIALLEEKENRKLKKTEKQAIKDDVIAMLLPRAFSKHQFTAIWLDLDAQLVYVDAASSKRAEASLALLRKTLGSLPVVPLSFVQLPAEVMTNWLAKGHTPNWLTLLEEAELKSFETESVIRCKKQELESDEICYHLQAGKLVTKLAIEWENHFSCVLNNDATLTRLKFAGEIIEKNDDILKEDIAQRLDADFLLMTEELRLFTQKLIEEFGGIKE”, the “soluble on expression in E. coli” value is reported as “not soluble”. With “TTTLAFRFQGGIIVAVDSRATAGNWVASQTVKRVIEINPFLLGTMAGGAADCQFWETWLGSQCRLHELREKERISVAAASKILSNLVYQYKGAGLSMGTMICGYTRKEGPTIYYVDSDGTRLKGDIFCVGSGQTFAYGVLDSNYKWDLSVEDALYLGKRSILAAAHRDAYSGGSVNLYHVTEDGWIYHGNHDVGELFWKVKEEEGSFNNVIG” the “soluble on expression in E. coli” value was “soluble”. With “MRNKILSDGAKELSYEIREIVKKADLINKNGQSIVFENIGDPIQKNNVVPQWIRETISNLTLDNKSYSYSPSKGILKTRQFLAELNNKKAGAQITADDILFFNGLGDAIAKVYQFISRSSRVIGPSPAYSTHSSAEAAHASQDPITYKLDPNNHWYPDLDDLYNKVKYNPNIIGILIINPDNPTGMVYPLETLKRIVEIAREFNLFLLSDEIYLNITYNGARAYSLAEVIEDVPGIAMKGISKEFPWPGSRCGWMEYYNRGKDQDFDKFCSALDNAKMIEVCSTTLPQLAIPVIMSDPRYLPYREELNSKIGKRSKIIAGILGQIPELMFNETYGAFYNTIVFKDGVLNDKQTLPIENAANKALVEKWISEPNVDLDKRFVYYLLAAKGICVVPISSFCSDLKGFRVTLLEENEELLEQTFTSIRDAIRLYLKS” the “soluble on expression in E. coli” value was “not soluble”. With “MGSSHHHHHHSSGLVPRGSHMRLAGILLHVTSLPSPYGIGDLGKEAYRFLDFLKECGFSLWQVLPLNPTSLEAGNSPYSSNSLFAGNYVLIDPEELLEEDLIKERDLKRFPLGEALYEVVYEYKKELLEKAFKNFRRFELLEDFLKEHSYWLRDYALYMAIKEEEGKEWYEWDEELKRREKEALKRVLNKLKGRFYFHVFVQFVFFKQWEKLRRYARERGISIVGDLPMYPSYSSADVWTNPELFKLDGDLKPLFVAGVPPDFFSKTGQLWGNPVYNWEEHEKEGFRWWIRRVLHNLKLFDFLRLDHFRGFEAYWEVPYGEETAVNGRWVKAPGKTLFKKLLSYFPKNPFIAEDLGFITDEVRYLRETFKIPGSRVIEFAFYDKESEHLPHNVEENNVYYTSTHDLPPIRGWFENLGEESRKRLFEYLGREIKEEKVNEELIRLVLISRAKFAIIQMQDLLNLGNEARMNYPGRPFGNWRWRIKEDYTQKKEFIKKLLGIYGREV” the “soluble on expression in E. coli” value was “soluble”. In the case of “MSQDVNELSKQPTPDKAEDNAFFPSPYSLSQYTAPKTDFDGVEHKGAYKDGKWKVLMIAAEERYVLLENGKMFSTGNHPVEMLLPLHHLMEAGFDVDVATLSGYPVKLELWAMPTEDEAVISTYNKLKEKLKQPKKLADVIKNELGPDSDYLSVFIPGGHAAVVGISESEDVQQTLDWALDNDRFIVTLCHGPAALLSAGLNREKSPLEGYSVCVFPDSLDEGANIEIGYLPGRLKWLVADLLTKQGLKVVNDDMTGRTLKDRKLLTGDSPLASNELGKLAVNEMLNAIQNK”, the “soluble on expression in E. coli” value is reported as “not soluble”. In the case of “MNSRIPEDLIERAHRGKTTKEDALLLLEVPPFELFRFADELRDLAAGDTVTYVVNRNINFTSRCTGSCGFCAFRTDDGKVLSIEEIMEKVREAEKANATEVCIQGGLLPDVGLDFYQGIVEAIKAEFPEMHVHSFSPMEVYHASRISEIPVKESLRRLKRSGLDTMPGTAAEILSDRVRKIICPAKLNTAEWIEVVTQAHAAGIPTTATMMYGHVETPEERINHMLTIREIQKETGGITEFVPLPFMPYNNPVGEKMIKEGRYATPGLEDLKVYAVSRILFHGHVDNIQASWVKLGKKFAQFSLHCGVNDLGGTLMEESISRSAGACHGEMITVDELEWMIHGAGRIPKERTTLYREAHELASRNSRKIAGCGAFE”, the “soluble on expression in E. coli” value is reported as “not soluble”. With “MKAVQGDPNWNLVTDTYIEPNNFAELFSLLVPCHPKGEGKERTILVWKEKEFYKEENLAAFIVYGMNKAKKLPQFHKDEIPTLVRILRLCQEIGWYEEANDFMIAQGLAEFVHTSLEYETWDLLTQSVALNYLIIKYRIGELTDRDIEIWDRVKFNEKCITDCKHLLSHKEVLEFTFFYMCKRAKSLSKEQLNSDMMSLAMYCNTFVYDLYTHDLLRKYRKCTDFLSYYGPSQAVLACQRAVLSQISDRLDPLKTTHVDDYLYVMKEMMEHMTIGVMDRYGHFIGKLLSYVPFFEMIQVPQHAYYCEELLYICKGIEYKEETLRNYIFIQLHDCLPSFFRLFLKNKRYATIHDILFYWCDDEQRMSLEKKYNLSFIYEKYACG” the “soluble on expression in E. coli” value was “not soluble”.
